These results are taken from article PMC9732815 (Cell reports, 2022).

Like-named read-outs stand apart in the source and are kept apart here.

The data set “crystal structure” concerns the molecule itself. Description: crystal structure.
Data set [1] concerns the target T1, Apn2Cat(D222N/E59Q) (Saccharomyces cerevisiae, UniProt P38207 1-407, E59Q;D222N).
T1 sequence: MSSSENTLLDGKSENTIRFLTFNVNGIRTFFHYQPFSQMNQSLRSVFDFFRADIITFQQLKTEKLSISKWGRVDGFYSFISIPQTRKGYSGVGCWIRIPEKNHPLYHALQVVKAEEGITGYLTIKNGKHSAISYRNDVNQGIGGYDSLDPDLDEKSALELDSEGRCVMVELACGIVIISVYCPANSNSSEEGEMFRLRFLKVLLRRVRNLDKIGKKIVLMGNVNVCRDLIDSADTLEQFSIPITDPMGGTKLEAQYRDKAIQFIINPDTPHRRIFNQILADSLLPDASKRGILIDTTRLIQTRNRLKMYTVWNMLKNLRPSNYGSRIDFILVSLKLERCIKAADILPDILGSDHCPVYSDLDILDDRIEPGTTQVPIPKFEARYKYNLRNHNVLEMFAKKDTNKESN
Description: X-ray crystallography.

Data set [2] addresses T1, Apn2Cat(D222N/E59Q). The experiment in a line: X-ray crystallography. The source holds these as a separate data set.

B1: Recombinant S. cerevisiae Apn2^Cat (residues 1–407) (domain or fragment, UniProt P38207 1-407, looked up)
chain: MSSSENTLLDGKSENTIRFLTFNVNGIRTFFHYQPFSQMNQSLRSVFDFFRADIITFQELKTEKLSISKWGRVDGFYSFISIPQTRKGYSGVGCWIRIPEKNHPLYHALQVVKAEEGITGYLTIKNGKHSAISYRNDVNQGIGGYDSLDPDLDEKSALELDSEGRCVMVELACGIVIISVYCPANSNSSEEGEMFRLRFLKVLLRRVRNLDKIGKKIVLMGDVNVCRDLIDSADTLEQFSIPITDPMGGTKLEAQYRDKAIQFIINPDTPHRRIFNQILADSLLPDASKRGILIDTTRLIQTRNRLKMYTVWNMLKNLRPSNYGSRIDFILVSLKLERCIKAADILPDILGSDHCPVYSDLDILDDRIEPGTTQVPIPKFEARYKYNLRNHNVLEMFAKKDTNKESN
A word on the stoichiometry N: it is a count of units in the complex or per binding partner. As for B1, the “stoichiometry N” value in the data set “crystal structure” was 2.

B2: duplex 2 (strand A + strand B) (dsDNA)
DNA 1: TCCGAAATTTCGG
DNA 2: CCGAAATTTCGGA
modifications: five phosphorothioate bonds at the 3' end of each strand (A TCCGAAAT*T*T*C*G*G; B CCGAAATT*T*C*G*G*A)
For B2, the binding result with Apn2Cat(D222N/E59Q) [1] is given as “binds”.

B3: duplex 1 (strand A self-annealed) (dsDNA)
DNA 1: TCCGAAATTTCGG
DNA 2: TCCGAAATTTCGG
modifications: five phosphorothioate bonds at the 3' end of each strand (TCCGAAAT*T*T*C*G*G)
Consider B3, for which the binding result with Apn2Cat(D222N/E59Q) [2] is listed as “binds”.
